Experiment: soluble on expression in E. coli; label from the status in PepcDB or PDB records

Sequence | soluble on expression in E. coli
MGSDKIHHHHHHMSDEWIKIFESDFYVREMIKVWDEGEKWANWIDEVVSKYKLEKKVLDIPCGIGRVSYFLANRGYKVTGIDISERMISMARSNIQNGKFIVGDMRKIKEIIGNEKYDLVINIYNSLGYYSEEDDLKILESLRDSTRKIVVINLDNRDYIIYNRPNEYYTYIPPYLVYSKVEFEQETSRLKIYRKYYLNDKEVGEMIYEQRLYSIHEILALLKKAGLQPIEVLSGYSWKKFSIMDPEMTIIATPA | not soluble
MSLAPFTTNPRRFDPYKNFKFRVKWDGRYVAGISKVGALKRSTEVIEHREGGDPSTGRKSPGRTKYDAISMERGVTHDLDFEQWANKVWNFGAGLGSEVSLADFRKDLIIDVFNEAGQKVMSYQVFRCWVSEYQALPDLDANANAIAIQSMKLENEGWLRDVAVAEPAEPSFTIPAEGHHHHHH | soluble
MARTRSADYENIRDTIIERAAAMFARQGYSETSIGDIARACECSKSRLYHYFDSKEAVLRDMLTTHVDSLLERCRQVLYGSNEPKTRFLQIVKLFLEIYATSRDRHVVMLTCLDALPEDQRKALIAKQRELIAYVRDALLQLRPDMAANRTLAHVDTMLFFGMINWTYTWYKADGSVSPDALAERTVQLFLDGYLNLLSA | soluble
MRSDVVARAMRLIADGTVDRDGVSGLAAQLGYTIRQLERLLQAVVGAGPLALARAQRMQTARVLIETTNLPFGDVAFAAGFSSIRQFNDTVRLACDGTPTALRARAAARFESATASAGTVSLRLPVRAPFAFEGVFGHLAATAVPGCEEVRDGAYRRTLRLPWGNGIVSLTPAPDHVRCLLVLDDFRDLMTATARCRRLLDLDADPEAIVEALGADPDLRAVVGKAPGQRIPRTVDEAEFAVRAVLAQQVSTKAASTHAGRLVAAYGRPVHDRHGALTHTFPSIEQLAEIDPGHLAVPKARQRTINALVASLADKSLVLDAGCDWQRARGQLLALPGVGPWTAEVIAMRGLGDPDAFPASDLGLRLAAKKLGLPAQRRALTVHSARWRPWRSYATQHLWTTLEHPVNQWPPQEKIALEHHHHHH | not soluble
MGHHHHHHSHMATLIYVDKEIGEPGTRVAAKDVLKLESRPSIKALDGISQVLTPRFGKTYDAPSALPKATRKALGTVNRATEKSVKTNGPRKQKQPSFSAKKMTEKTVKTKSSVPASDDAYPEIEKFFPFNLLDFESFDLPEERQIAHLPLSGVPLMILDEEGELEKLFQLGPPSPVKMPSPPWECNLFAVSFKHSVDPGC | not soluble
MGSDKIHHHHHHSKDKKSTDTKQTETKKTAKTDGTMTDGTYKLEEKNFDDKGWKGFMSIEVKDGKITKANYDYKNKDGKLKSEDADYEKAMKDKVGTGPQEYLKQLSDSLVKGQSASSVEVVSGATHSSDAFINYANQLIQAAQKADTTTISINNLAKMEDGTYKLEEQNYAHGYRVVFSMDVKDGKITKSDYNYVDKDGKLKSDDADYEKNMKAKSGTGPKEYIPALNKSLVEKQDVAAVDTVSGATNSSNQFKIYAAQLQNAAQNGNTDTIKVYNLVEAE | not soluble
MPVGPPVPPKPSTPIMNGERLGEYGVGGHIGNGDVVPERRGILPASLREKINQKKELEGRATPSIEPDLVGRDRYDKASRCFSYVPAKSMQEAFERPRRTSFSRAIEKRENSVENVSQEEVARTEIPQSYQQNDISTPAKWDEQVEDAKQSALLEELARAPSAMQHNYWGNGEVDNVQVVDQAQRAVITPTSTLQRRPKPPARSGSYRTLNDDAYCSDMDELCDPEYYLNYNSNTAPLPPPRRQEQHAGTRSVQLPRKKMNFDAVTDPLDDVLESTKRLGSAYSVGDVRGGQQQQQEQHNASNDFNFSNTLNNTPTDYRQHYRNRNCQSVTTPRNHHFSTPSREQEADAADTWLSGKLKKVRSKRDIDPDIVRRRTQEKMLLEELKDSAANNDENQHNLPNGHARGAGLQNIDPLAEFRREEERLRNTRSPYGEERWRGRMRGKPPTPPPRESSASPVNSLPRGTPAHHMDRQRHNQSVPLPMHHRQFDEDFDVNSLFNFSHDPRQQSTTLERGGRSLSRGARIQDAYYASQQDLSANNRFNSGQERVAAAIYRAETAHRDMYASGTINRAETPGRYFPENSAVLERSSTPSFPVSRATPLPFHPLLYNNGERGGSGHAAGGGGGGHNGYSTMNNRSASPRLFGGSSTLSRRSSVNSVDILSEILILQTSYLSCSYILLYLWNFYSLAFASNFKTMSDTATTSTTVVIHLKRSNHDDASASATTAQLQQRSRYCDVSLASSEESSDLSDAEEKDDLIRRTITSSSKDTMEEGDDDDEEEFDDVVMEEDVGGGTDANEQFSRVIQRQISGAGGGILKKSNGKDTSEIIHHHPLFVKDTSKYWYKPTISREQAINMLRDKPPGTFVVRDSNSFPGAFGLALKVSTPPPGVNPGDGSELVRHFLIEPSPKGVKLKGCNNEPVFGSLSALVYQHSITALALPTKLVLPDFDPAATPEHLSATQALLEQGAACNVVYVGSVDVESLTGNECVKRSIATCSQRAINGDSRAVSVHFKVSSQGVTLTDNTRKVFFRRHFNVQSVIFAGMDPIERRFENTRALGFHDGCIAQARLFAFVARIPSSSENACHVFAELEPEQPGSAVVNFINKVMLAQKNRS | not soluble
MSLNHVRPWRNIHRRKSRQIMVGNVPVGGDAPISVQTMTNTITADAPATIAQVLRAAEAGADIVRVSVPDEASTRALKEIVAASPVPIVADIHFHYKRAIEAAEAGAACLRINPGNIGDASRVREVIKAARDHGCSMRIGVNAGSLEKHLLDKYGEPCPEAMVESGLDHIKILQDNDFHEFKISVKASDVFLAAAAYQALADATDAPIHLGITEAGGLTAGTVKSAVGLGNLLWSGIGDTLRVSLSADPVEEVKVGYEILKSLGLRHRGVTIISCPSCARQGFDVIKTVAELEDRLAHVTTSMSLSIIGCVVNGPGEALMTDIGFTGGGNGSGMVYLAGKQAHKLGSERMIDEIVSMVESRAAEIEAEKLAAAEAAE | not soluble
ASEKVGMNLVTAQGVGQSIGTVVIDETEGGLKFTPHLKALPPGEHGFHIHANGSCQPAIKDGQAVAAEAAGGHLDPQNTGKHEGPEGQGHLGDLPVLVVNNDGIATEPVTAPRLKSLDEVKDKALMIHVGGDNMSDQPKPLGGGGTRYACGVIK | soluble
MSLEPIGNVIKKIVKERNLGSKEDILNQVLQDPDINAFLQANKAKIDQKMIKNSMSGLYEFYSQKRNPSKVMAGYAPQLFLNGKVIDVRYAPTQAKVAQDRKRAAKKRLHLIDLPGRLHDVELSKIDITDDRNQVLTLIYDFLNKYSKDSHQQGLYLSGDFGVGKTYILAGLANYVVTNMEKDVVFLHVPTFIAGLASHFGDNSLQDEIRRLSECDLLILDDIGAETLSQWSRDDVLGVILQARMDNVLPTFFSSNLDMEALESHFEETRNATDPVKARRLMQRIRFLAKEVVVSGPDRRNSLREGHHHHHH | soluble
MTQPDRGKDRAGRRTKRFLTPSEKYEIWLQLVRQEVTIAEAAEQQQVDRSTIMRIRTVAKEGALAALAASKPGVAAAQRDYEMEAAKAEIARLSEAVKQMAVKLTLVEGKGGWA | not soluble
MGSDKIHHHHHHGADVETPSVSISVSPENPKVGEEVTVTINTDAQYLTLFTGDEGKNFERSRIKAIMEHDWDSFYEECYRVSYAKNGEKTLFYKYFKDYQSIEDVKKDFEFFGAIDNIQLVPYKKGDFPEALMEMSYIGTNQLKFTVTDRRIPSGIRMKPNIHIFGGLANQPGNTIIESRFVACDADRAIRKYSNDAWVAAYFGLHTEQLEDFQGYSAGYKYYTFQDERSYGAFQTNDPLSRRPTEGFYKLGDMYNRDTYLQPFLDHGEKIILRQVDMYVNGRSTFVAADDSPYKYDLDGDGVLESYECELDPATGLPVHEADYTKYKGFQGDVYLSFIEMGTDEYEPWNTGVSLGSVYTTGGIQKTYKYIYTGAGDFTITAVATNVGDKDYKGIDYSEERSNSLDDYSHKRALSSVKVSVKP | not soluble
MATLEDGTSEDRVANDEYKIWKKNTPFLYDLVMTHALEWPSLSVQWLPDVAKDNSDHTIHRLILGTHTSDEQNHLLISKICMPTDDAQFDASRYDTERSEYGGFGAVNGKVEPDIRINHEGEVNRARYMPQKSNIIATKSPHADVYIFDYLKHSAVPRDNTFNPLIRLKGHTKEGYGLSWNPNKEGLILSASDDQTVCHWDINANQNVAGELQAKDVFKGHESVVEDVAWHVLHDGVFGSVGDDKKLLIWDVRTSTPGHCIDAHSAEVNCLAFNPYSEFILATGSADKTVALWDLRNLRMKLHSFESHRDEIFQVQWSPHNETILASSGTDKRLHVWDLSKIGEDQSAEDAEDGPPELLFIHGGHTAKISDFSWNPNEPWVVCSVSEDNILQVWQMADNIYNEVDEETPADVVERQQ | not soluble
MRLKKIGEWLNASPEDQDKQNADLLQTLSKLTGKQLDANALQMLQNLLQAVESKNVSGTDQLLTETEKIFSEAKTALSANDSASDINGALKSDKEQSNQENEVSEPAKELIYIQMFISQLVEGNKLTDLGNGNEAHAIYQNGDQFLSALEKKGVSQQLIQDLKQQIFTKAESSSKLYSMTASELKSFQSLMDQMSMLPQKGTKEWSLAETQLKAFLLSKSSESSQDFGKSVLTPLSQSSSSKNASDVSGSIQPVDSKSGLQMLFSGYRGIGGVQTLDLQQMSSDIPNAETKTVADQVINAWKQMKYTPFGRSTGSFTIRLNPEHLGFVTIKLTNENGMFQSKIIASSQSAKELLEQHLPQLKQSLPNMAVQIDRFTLPVQSGDQPIYGQLADEQKQQQEGQRQQRQKKQSNDFGDLLDEVSMVEMEEEE | soluble
MGTMRIAFQGTAGAYSEEALLKVFPEAKPVGFPTFHQVFEAVEAGEAELGVVPVENTTAGSINQTYDLLLESDLHVVGEIVHRVEHCLLAPKGTTLKDLHAVKSHPQALAQCDGFLARMRLTPIPVFDTAGAAKELAEHPEPGLAAIASRRAAELYGLEVLAENIEDYPHNYTRFFVIGHKEPPRGQGPYKTSIVFAVRHRPGGLLEALSVFAEAGVNLTKLESRPRRDKPFSYLFYLDLEGHLEDPGPAQALLRLLRRVAFLKVLGSYPAHANGGVSAP | soluble
MSQPSGPPIGFSNPDYIPPKALDLLKPALTIRAPPEETGMLGELQEDVLQVLSLPCRHTNACLPACLQSLPILCSF | soluble
MGSDKIHHHHHHMWTQQMIHTKRGTFELFTKGNGEPLCITHHYSQFNETGDYFADVFTSTHRVLLINLRDAGNSAKANSEKELSMIETIHDLEAIREALQLPTWHFAGHSTGGMLGLLYAITYPKSLQSLVLVGAAASNYTETPFCIYHPEHPQFHYMQHLIENLKSPHLTNEERKELSTERTKLSLHKPENYNSYFCKPIQKTMSASRMNAFSHEYPAFNLREHLPSMKTKTLIICGRYDVQCPIQYSIEMHEGIRNSIFVTFEESNHYPFLEEAAQFTSTIRTFYKLLH | not soluble
MVTILDRTSSDEKRIRHPEKAHRPDTEVMRKPEWIRVKAPTSKGYHETRELVRSHKLVTVCEEAGCPNIGECWEKKHATFMIMGEICTRACAFCNVATGKPNALDMDEPENVAKAVKQMGLSHVVITSVDRDDLADGGAEHFEKVIWAIRAASPTTTIEILTPDFLKKPGALERVVAAKPDVFNHNMETVPGNYLTVRPGARYFHSVRLLQRVKELDPTMFTKSGIMVGLGEERNEVLQLMDDLRSADVDFLTIGQYLQPTRKHHKVEAFVTPEEFKSYETVAYAKGFLMVSSSPLTRSSHHAGDDFERLRAAREKKLLAAAE | not soluble
MGSDKIHHHHHHMQCIRVGVIGAGGVAQVEHIPNLLKLHRQFKILGVYDPSRKVRAFVGEEFGLETFSDLDALLAMPLDAVVIASPDALHREQSLAAFARGLHVFCEKPLCYGAQDIDQLIAARDRAGKVLQVGYMKRFDPSYEAALNMLPGTARTLRSVSVEVNDPDAWPFIRHASTCRGDDVAAELIASTEARQREQVDRAVPGLDDPHAFRGFVGAYSSSIVHDVNAVHGLLDALGVADGEIVGASLFAKGEAGQGTVRLLDGQALWTMAHIATPGLPDYRERITLHFDDASLELEFPSPYLNHQPTRLTIRTGDGHTLSSRDIRSGYEEAFVEELKGFWSAIVEGTAVRNTAEHARRDMTLLAGLTRHHLDQSKQSGVRP | not soluble
